Measured values: US20250154198A1, “PEPTIDE INHIBITORS OF INTERLEUKIN-23 RECEPTOR” (Zealand Pharma A/S, priority 2021, published 2025)
*1 amine or outer side, *2 acyl side, *3 side chain or, on linkers, in order; H or OH if unused. Bridges are numbered along the chain shown (N, C = ends). [ ]: non-standard residue; d: D form. 1,3‑dibromopropan‑2‑one = linker (CAS 816-39-7) joining two Cys as 1,3-dithio-propan-2-one bridge -SCH2C(=O)CH2S-; Trp(1-Me) = Cn1cc(C[C@H](N)C(=O)O)c2ccccc21; 2Nal = N[C@@H](Cc1ccc2ccccc2c1)C(=O)O; AEF = NCCOc1ccc(C[C@H](N)C(=O)O)cc1; αMeL = CC(C)C[C@](C)(N)C(=O)O; CH2COCH2 = O=C(C[*:1])C[*:2]; αMeK = C[C@](N)(CCCCN)C(=O)O; 3Amb = NCc1cccc(C(=O)O)c1; Abu = CC[C@H](N)C(=O)O

T1: Nluc-IL23R fusion protein (human, UniProt Q5VWK5 22-629)
T1 construct: range 22-629; Stably expressed in HEK293 cells; also called hIL-23R; human IL-23R fused to a Nanoluc luciferase enzyme; not shown: Nanoluc luciferase (Promega N1371 plasmid) at the N-terminus
T1 sequence (looked up): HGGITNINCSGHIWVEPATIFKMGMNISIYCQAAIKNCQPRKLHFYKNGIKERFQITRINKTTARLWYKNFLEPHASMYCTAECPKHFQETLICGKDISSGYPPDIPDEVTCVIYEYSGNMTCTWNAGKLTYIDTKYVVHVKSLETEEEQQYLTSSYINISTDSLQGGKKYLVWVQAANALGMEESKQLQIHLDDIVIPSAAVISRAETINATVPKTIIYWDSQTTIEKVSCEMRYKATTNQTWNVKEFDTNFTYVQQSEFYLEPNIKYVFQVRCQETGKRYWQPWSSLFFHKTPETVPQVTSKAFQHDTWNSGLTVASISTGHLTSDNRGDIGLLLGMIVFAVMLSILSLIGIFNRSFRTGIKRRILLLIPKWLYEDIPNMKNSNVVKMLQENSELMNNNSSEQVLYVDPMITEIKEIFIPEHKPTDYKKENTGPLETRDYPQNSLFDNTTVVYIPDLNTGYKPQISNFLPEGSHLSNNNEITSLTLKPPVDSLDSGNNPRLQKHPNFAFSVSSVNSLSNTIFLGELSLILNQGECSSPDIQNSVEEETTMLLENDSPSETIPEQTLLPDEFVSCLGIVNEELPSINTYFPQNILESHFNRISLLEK

T2: human IL-23R endogenously expressed on DB cells (CRL-2289) (human, UniProt Q5VWK5 24-629)
T2 sequence (looked up): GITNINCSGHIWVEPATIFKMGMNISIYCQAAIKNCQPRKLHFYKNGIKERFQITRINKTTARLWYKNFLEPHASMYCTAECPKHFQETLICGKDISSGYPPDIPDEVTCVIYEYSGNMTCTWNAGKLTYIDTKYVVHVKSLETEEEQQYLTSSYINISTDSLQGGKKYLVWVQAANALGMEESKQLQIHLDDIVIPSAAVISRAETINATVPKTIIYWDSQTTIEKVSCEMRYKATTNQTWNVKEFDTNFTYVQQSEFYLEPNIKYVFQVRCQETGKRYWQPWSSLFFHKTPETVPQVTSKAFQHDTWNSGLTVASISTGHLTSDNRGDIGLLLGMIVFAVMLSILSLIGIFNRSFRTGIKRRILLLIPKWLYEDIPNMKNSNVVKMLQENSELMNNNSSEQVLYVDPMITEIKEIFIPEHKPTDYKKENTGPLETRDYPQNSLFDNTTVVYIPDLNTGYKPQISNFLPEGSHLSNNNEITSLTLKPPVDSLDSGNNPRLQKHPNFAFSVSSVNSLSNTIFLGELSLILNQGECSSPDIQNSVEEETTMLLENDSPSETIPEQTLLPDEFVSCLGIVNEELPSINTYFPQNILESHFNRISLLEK

B1: Compound 54 (peptide)
peptide: Ac-KSCWQC[AEF][2Nal]LER-NH2
modifications: lactam 1-10; disulfide 3-6
B2: Compound 32 (peptide)
peptide: KSCWQCWXLER
HELM: PEPTIDE1{[ac].K.S.C.W.Q.C.W.[Cn1cc(C[C@H](N[*:1])C(=O)[*:2])c2ccccc21].L.E.R.[am]}|CHEM1{[O=C(C[*:1])C[*:2]]}$PEPTIDE1,PEPTIDE1,2:R3-11:R3|PEPTIDE1,CHEM1,4:R3-1:R1|PEPTIDE1,CHEM1,7:R3-1:R2$$$V2.0
SMILES: CC(=O)N[C@H]1CCCCNC(=O)CC[C@@H](C(=O)N[C@@H](CCCNC(=N)N)C(N)=O)NC(=O)[C@H](CC(C)C)NC(=O)[C@H](Cc2cn(C)c3ccccc23)NC(=O)[C@H](Cc2c[nH]c3ccccc23)NC(=O)[C@@H]2CSCC(=O)CSC[C@H](NC(=O)[C@H](CO)NC1=O)C(=O)N[C@@H](Cc1c[nH]c3ccccc13)C(=O)N[C@@H](CCC(N)=O)C(=O)N2
B3: Compound C (peptide)
peptide: Ac-[Abu]QTWQC[AEF]W[αMeK]ENG-NH2
modifications: thioether 1-6
B4: Compound 40 (peptide)
peptide: [3Amb]SCWQCW[2Nal][αMeL]ER-NH2
modifications: lactam N-10; linker 3-6 via CH2COCH2
SMILES: CC(C)C[C@]1(C)NC(=O)[C@H](Cc2ccc3ccccc3c2)NC(=O)[C@H](Cc2c[nH]c3ccccc23)NC(=O)[C@@H]2CSCC(=O)CSC[C@H](NC(=O)[C@H](CO)NC(=O)c3cccc(c3)CNC(=O)CC[C@@H](C(=O)N[C@@H](CCCNC(=N)N)C(N)=O)NC1=O)C(=O)N[C@@H](Cc1c[nH]c3ccccc13)C(=O)N[C@@H](CCC(N)=O)C(=O)N2
B5: Compound 27 (peptide)
peptide: Ac-KSC[Trp(1-Me)]QCW[2Nal]LER-NH2
modifications: lactam 1-10; linker 3-6 via CH2COCH2
SMILES: CC(=O)N[C@H]1CCCCNC(=O)CC[C@@H](C(=O)N[C@@H](CCCNC(=N)N)C(N)=O)NC(=O)[C@H](CC(C)C)NC(=O)[C@H](Cc2ccc3ccccc3c2)NC(=O)[C@H](Cc2c[nH]c3ccccc23)NC(=O)[C@@H]2CSCC(=O)CSC[C@H](NC(=O)[C@H](CO)NC1=O)C(=O)N[C@@H](Cc1cn(C)c3ccccc13)C(=O)N[C@@H](CCC(N)=O)C(=O)N2
B6: Compound 25 (peptide)
peptide: Ac-KSC[2Nal]QCW[2Nal]LER-NH2
modifications: lactam 1-10; linker 3-6 via CH2COCH2
SMILES: CC(=O)N[C@H]1CCCCNC(=O)CC[C@@H](C(=O)N[C@@H](CCCNC(=N)N)C(N)=O)NC(=O)[C@H](CC(C)C)NC(=O)[C@H](Cc2ccc3ccccc3c2)NC(=O)[C@H](Cc2c[nH]c3ccccc23)NC(=O)[C@@H]2CSCC(=O)CSC[C@H](NC(=O)[C@H](CO)NC1=O)C(=O)N[C@@H](Cc1ccc3ccccc3c1)C(=O)N[C@@H](CCC(N)=O)C(=O)N2
B7: Compound 12 (peptide)
peptide: Ac-ESCWQCWWLK-NH2
modifications: lactam 1-10; linker 3-6 via 1,3‑dibromopropan‑2‑one
B8: Compound 47 (peptide)
peptide: Ac-KSCWQC[AEF][2Nal][αMeL]ER-NH2
modifications: lactam 1-10; linker 3-6 via CH2COCH2
SMILES: CC(=O)N[C@H]1CCCCNC(=O)CC[C@@H](C(=O)N[C@@H](CCCNC(=N)N)C(N)=O)NC(=O)[C@](C)(CC(C)C)NC(=O)[C@H](Cc2ccc3ccccc3c2)NC(=O)[C@H](Cc2ccc(OCCN)cc2)NC(=O)[C@@H]2CSCC(=O)CSC[C@H](NC(=O)[C@H](CO)NC1=O)C(=O)N[C@@H](Cc1c[nH]c3ccccc13)C(=O)N[C@@H](CCC(N)=O)C(=O)N2
B9: Compound 11 (peptide)
peptide: Ac-DESCWQCWWLK-NH2
modifications: lactam 2-11; linker 4-7 via 1,3‑dibromopropan‑2‑one
B10: Compound 28 (peptide)
peptide: Ac-DKSCWQC[2Nal][2Nal]LER-NH2
modifications: lactam 2-11; linker 4-7 via CH2COCH2
SMILES: CC(=O)N[C@@H](CC(=O)O)C(=O)N[C@H]1CCCCNC(=O)CC[C@@H](C(=O)N[C@@H](CCCNC(=N)N)C(N)=O)NC(=O)[C@H](CC(C)C)NC(=O)[C@H](Cc2ccc3ccccc3c2)NC(=O)[C@H](Cc2ccc3ccccc3c2)NC(=O)[C@@H]2CSCC(=O)CSC[C@H](NC(=O)[C@H](CO)NC1=O)C(=O)N[C@@H](Cc1c[nH]c3ccccc13)C(=O)N[C@@H](CCC(N)=O)C(=O)N2
B11: Compound 1 (peptide)
peptide: DCSCWQCWWXCR
modifications: H-DC(1a)SC(2a)WQC(2a)WW[2-Me-Leu]C(1a)R-[NH2]; (1a)=[2,11] and (2a)=[4,7] 1,3-dithio-propan-2-one bridges
B12: Compound 35 (peptide)
peptide: Ac-GCTCWECW[2Nal][αMeL]CR-NH2
modifications: linker 2-11, 4-7 via CH2COCH2
SMILES: CC(=O)NCC(=O)N[C@H]1CSCC(=O)CSC[C@@H](C(=O)N[C@@H](CCCNC(=N)N)C(N)=O)NC(=O)[C@](C)(CC(C)C)NC(=O)[C@H](Cc2ccc3ccccc3c2)NC(=O)[C@H](Cc2c[nH]c3ccccc23)NC(=O)[C@@H]2CSCC(=O)CSC[C@H](NC(=O)[C@H]([C@@H](C)O)NC1=O)C(=O)N[C@@H](Cc1c[nH]c3ccccc13)C(=O)N[C@@H](CCC(=O)O)C(=O)N2
B13: Compound 30 (peptide)
peptide: KSCWQCHXLER
HELM: PEPTIDE1{[ac].K.S.C.W.Q.C.H.[O=C([C@H](Cc1ccc2ccccc2c1)N[*:1])[*:2]].L.E.R.[am]}|CHEM1{[O=C(C[*:1])C[*:2]]}$PEPTIDE1,PEPTIDE1,2:R3-11:R3|PEPTIDE1,CHEM1,4:R3-1:R1|PEPTIDE1,CHEM1,7:R3-1:R2$$$V2.0
SMILES: CC(=O)N[C@H]1CCCCNC(=O)CC[C@@H](C(=O)N[C@@H](CCCNC(=N)N)C(N)=O)NC(=O)[C@H](CC(C)C)NC(=O)[C@H](Cc2ccc3ccccc3c2)NC(=O)[C@H](Cc2c[nH]cn2)NC(=O)[C@@H]2CSCC(=O)CSC[C@H](NC(=O)[C@H](CO)NC1=O)C(=O)N[C@@H](Cc1c[nH]c3ccccc13)C(=O)N[C@@H](CCC(N)=O)C(=O)N2
B14: Compound 31 (peptide)
peptide: KSCWQCWXLER
HELM: PEPTIDE1{[ac].K.S.C.W.Q.C.W.[O=C([C@H](Cc1ccc(F)cc1)N[*:1])[*:2]].L.E.R.[am]}|CHEM1{[O=C(C[*:1])C[*:2]]}$PEPTIDE1,PEPTIDE1,2:R3-11:R3|PEPTIDE1,CHEM1,4:R3-1:R1|PEPTIDE1,CHEM1,7:R3-1:R2$$$V2.0
SMILES: CC(=O)N[C@H]1CCCCNC(=O)CC[C@@H](C(=O)N[C@@H](CCCNC(=N)N)C(N)=O)NC(=O)[C@H](CC(C)C)NC(=O)[C@H](Cc2ccc(F)cc2)NC(=O)[C@H](Cc2c[nH]c3ccccc23)NC(=O)[C@@H]2CSCC(=O)CSC[C@H](NC(=O)[C@H](CO)NC1=O)C(=O)N[C@@H](Cc1c[nH]c3ccccc13)C(=O)N[C@@H](CCC(N)=O)C(=O)N2
B15: Compound 57 (peptide)
peptide: Ac-DETCWQCW[2Nal][αMeL]KR-NH2
modifications: lactam 2-11; linker 4-7 via CH2COCH2
SMILES: CC(=O)N[C@@H](CC(=O)O)C(=O)N[C@H]1CCC(=O)NCCCC[C@@H](C(=O)N[C@@H](CCCNC(=N)N)C(N)=O)NC(=O)[C@](C)(CC(C)C)NC(=O)[C@H](Cc2ccc3ccccc3c2)NC(=O)[C@H](Cc2c[nH]c3ccccc23)NC(=O)[C@@H]2CSCC(=O)CSC[C@H](NC(=O)[C@H]([C@@H](C)O)NC1=O)C(=O)N[C@@H](Cc1c[nH]c3ccccc13)C(=O)N[C@@H](CCC(N)=O)C(=O)N2

Each binder was assayed against T1, Nluc-IL23R fusion protein (assay: BRET displacement of TAMRA-labelled peptide, Nluc-IL23R membranes).
With B1 the Ki was 178 nM. B2 showed a Ki of 14.2 nM. B3 was tested, and the Ki was 2.11 nM. For B4, the Ki was 18.1 nM. For B5, the Ki was 1.77 nM. For B6, the Ki was 185 nM. Work on B7 yielded a Ki of 373 nM. B8 showed a Ki of 0.624 nM. B9 was tested, and the Ki was 706 nM. Work on B10 yielded a Ki of 4.52 nM. Binder B11 has a Ki of 79.8 nM. B12 gave a Ki of 41.2 nM. Binder B13 has a Ki of 5.53 nM. For B14, the Ki was 76.3 nM. B15 showed a Ki of 68 nM.

These binders were tested against T2, human IL-23R endogenously expressed on … (assay: cell-based or functional assay).
B2 was tested, and the “IC50 (pSTAT3)” value was 118 nM. For B3, the “IC50 (pSTAT3)” value was 13.8 nM. B5 was tested, and the “IC50 (pSTAT3)” value was 15.5 nM. B6 was tested, and the “IC50 (pSTAT3)” value was greater than 1 µM. For B7, the “IC50 (pSTAT3)” value was greater than 1 µM. In the case of B8, the “IC50 (pSTAT3)” value is reported as 17.2 nM. In the case of B9, the “IC50 (pSTAT3)” value is reported as greater than 1 µM. For B10, the “IC50 (pSTAT3)” value was 27.4 nM. With B11 the “IC50 (pSTAT3)” value was 783 nM. B13 was tested, and the “IC50 (pSTAT3)” value was 68.6 nM. With B14 the “IC50 (pSTAT3)” value was 968 nM. B15 was tested, and the “IC50 (pSTAT3)” value was 167 nM.
